First the molecules themselves.
B1: DVL3 (parent)
chain: FPELGYSYGGGSASSQHSEGSRSS
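Note: lentivirally expressed fusions sorted by FACS into six bins by GFP to DsRed ratio, PSI derived from sequencing read proportions per bin multiplied by bin number.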

In this series the parent is B1. Kind of series: protein stability index of a GFP-peptide fusion (GPS, HEK-293T) (PSI 1-6); higher = more stable. The note with it: c terminus: a fixed tail appended.
As for FPELGYSYGGGSASSQHSEGSCSS [R22C], the protein stability index is 3.41.

FPELGYSYGGGSASSQHSEGSLSS [R22L]: the protein stability index is 2.53. As for FPELGYSYGGGSASSQHSEGSMSS [R22M], the protein stability index was 3.4. As to FPELGYSYGGGSASSQHSEGSYSS [R22Y], the protein stability index came out at 3.21. In the case of FPELGYSYGGGSASSQHSEGSNSS [R22N] it was 3.56. For FPELGYSYGGGSASSQHSEGSGSS [R22G], the protein stability index stood at 3.53. Regarding FPELGYSYGGGSASSQHSEGSFSS [R22F], the protein stability index was 2.79. In the case of FPELGYSYGGGSASSQHSEGSDSS [R22D] it was 3.42; in that of FPELGYSYGGGSASSQHSEGSSSS [R22S], 3.66. On to FPELGYSYGGGSASSQHSEGSISS [R22I], for which the protein stability index was 3.43. On to FPELGYSYGGGSASSQHSEGSESS [R22E], for which the protein stability index was 3.71. As for FPELGYSYGGGSASSQHSEGSKSS [R22K], the protein stability index is 3.15.

For FPELGYSYGGGSASSQHSEGSQSS [R22Q], the protein stability index came out at 2.92. On to FPELGYSYGGGSASSQHSEGSVSS [R22V], for which the protein stability index turned out to be 3.18. The result for FPELGYSYGGGSASSQHSEGSASS [R22A] reads 3.41. Consider FPELGYSYGGGSASSQHSEGSHSS [R22H], for which the protein stability index was found to be 3.24. In the case of FPELGYSYGGGSASSQHSEGSWSS [R22W] it was 2.88.

Take FPELGYSYGGGSASSQHSEGSPSS [R22P]: the protein stability index was found to be 3.59. As to FPELGYSYGGGSASSQHSEGSTSS [R22T], the protein stability index turned out to be 2.6.

On to FPELGYSYGGGSASSQHEEGSRSS [S18E], for which the protein stability index was 3.5. The result for FPELGYSYGGGSASSQHNEGSRSS [S18N] reads 2.89; that for FPELGYSYGGGSASSQHKEGSRSS [S18K], 2.98; that for FPELGYSYGGGSASSQHHEGSRSS [S18H], 2.95. For the variant FPELGYSYGGGSASSQHVEGSRSS [S18V], the protein stability index amounted to 3.36. In the case of FPELGYSYGGGSASSQHQEGSRSS [S18Q], the protein stability index worked out at 3.15. As to FPELGYSYGGGSASSQHFEGSRSS [S18F], the protein stability index was 2.77. In the case of FPELGYSYGGGSASSQHCEGSRSS [S18C] it was 2.9. Turning to FPELGYSYGGGSASSQHLEGSRSS [S18L], the protein stability index came out at 2.86. In the case of FPELGYSYGGGSASSQHAEGSRSS [S18A], the protein stability index came to 3.19. Consider FPELGYSYGGGSASSQHIEGSRSS [S18I], for which the protein stability index came to 2.73. For FPELGYSYGGGSASSQHWEGSRSS [S18W], the protein stability index was determined as 2.2.

For the variant FPELGYSYGGGSASSQHYEGSRSS [S18Y], the protein stability index is 2.9. Regarding FPELGYSYGGGSASSQHREGSRSS [S18R], the protein stability index was 2.97. Consider FPELGYSYGGGSASSQHTEGSRSS [S18T], for which the protein stability index is 3.3.

For FPELGYSYGGGSASSQHDEGSRSS [S18D], the protein stability index worked out at 3.7. Take FPELGYSYGGGSASSQHMEGSRSS [S18M]: the protein stability index is 2.76. For the variant FPELGYSYGGGSASSQHGEGSRSS [S18G], the protein stability index is 3.12.

For the variant FPELGYSYGGGSASSQHPEGSRSS [S18P], the protein stability index is 3.24. Consider FPELGYSYGGGSYSSQHSEGSRSS [A13Y], for which the protein stability index turned out to be 2.49.

Consider FPELGYSYGGGSNSSQHSEGSRSS [A13N], for which the protein stability index was 3.03.

On to FPELGYSYGGGSRSSQHSEGSRSS [A13R], for which the protein stability index was 3.12. In the case of FPELGYSYGGGSWSSQHSEGSRSS [A13W] it was 1.91; in that of FPELGYSYGGGSPSSQHSEGSRSS [A13P], 2.94. In the case of FPELGYSYGGGSSSSQHSEGSRSS [A13S], the protein stability index was 2.9. The result for FPELGYSYGGGSVSSQHSEGSRSS [A13V] reads 3.12. Take FPELGYSYGGGSTSSQHSEGSRSS [A13T]: the protein stability index is 3.31. The result for FPELGYSYGGGSQSSQHSEGSRSS [A13Q] reads 2.8. With FPELGYSYGGGSMSSQHSEGSRSS [A13M], the protein stability index worked out at 2.98. In the case of FPELGYSYGGGSASSQHSEGHRSS [S21H] it was 2.94; in that of FPELGYSYGGGSASSQHSEGDRSS [S21D], 2.87. As for FPELGYSYGGGSASSQHSEGTRSS [S21T], the protein stability index worked out at 3.24. Consider FPELGYSYGGGSASSQHSEGRRSS [S21R], for which the protein stability index amounted to 2.62. The result for FPELGYSYGGGSASSQHSEGVRSS [S21V] reads 3.07; that for FPELGYSYGGGSASSQHSEGGRSS [S21G], 2.71; that for FPELGYSYGGGSASSQHSEGPRSS [S21P], 3.43. The result for FPELGYSYGGGSASSQHSEGCRSS [S21C] reads 3.3. In the case of FPELGYSYGGGSASSQHSEGQRSS [S21Q], the protein stability index was 3.41. Regarding FPELGYSYGGGSASSQHSEGNRSS [S21N], the protein stability index came out at 2.91. In the case of FPELGYSYGGGSASSQHSEGYRSS [S21Y] it was 2.88; in that of FPELGYSYGGGSASSQHSEGMRSS [S21M], 2.78; in that of FPELGYSYGGGSASSQHSEGLRSS [S21L], 2.61. On to FPELGYSYGGGSASSQHSEGIRSS [S21I], for which the protein stability index worked out at 2.83.

As for FPELGYSYGGGSASSQHSEGERSS [S21E], the protein stability index turned out to be 3. The result for FPELGYSYGGGSASSQHSEGWRSS [S21W] reads 2.29; that for FPELGYSYGGGSASSQHSEGFRSS [S21F], 2.56; that for FPELGYSYGGGSASSQHSEGARSS [S21A], 2.94. Regarding FPELGYSYGGGSASSQHSEGKRSS [S21K], the protein stability index amounted to 3.17.

Consider FPELGYSYGGGSASSQHSCGSRSS [E19C], for which the protein stability index worked out at 2.39. For the variant FPELGYSYGGGSASSQHSAGSRSS [E19A], the protein stability index stood at 2.99. As for FPELGYSYGGGSASSQHSIGSRSS [E19I], the protein stability index was 2.94. In the case of FPELGYSYGGGSASSQHSKGSRSS [E19K], the protein stability index stood at 2.89. The result for FPELGYSYGGGSASSQHSHGSRSS [E19H] reads 2.38. For FPELGYSYGGGSASSQHSSGSRSS [E19S], the protein stability index came to 3.16. As for FPELGYSYGGGSASSQHSVGSRSS [E19V], the protein stability index amounted to 2.52.

Turning to FPELGYSYGGGSASSQHSQGSRSS [E19Q], the protein stability index came out at 2.66. FPELGYSYGGGSASSQHSDGSRSS [E19D]: the protein stability index was found to be 3.64. Take FPELGYSYGGGSASSQHSMGSRSS [E19M]: the protein stability index worked out at 3.12. As for FPELGYSYGGGSASSQHSLGSRSS [E19L], the protein stability index turned out to be 2.06. The result for FPELGYSYGGGSASSQHSYGSRSS [E19Y] reads 2.41; that for FPELGYSYGGGSASSQHSWGSRSS [E19W], 1.81. With FPELGYSYGGGSASSQHSTGSRSS [E19T], the protein stability index came out at 3.24. On to FPELGYSYGGGSASSQHSRGSRSS [E19R], for which the protein stability index came to 2.85. Consider FPELGYSYGGGSASSQHSGGSRSS [E19G], for which the protein stability index came out at 2.87. The result for FPELGYSYGGGSASSQHSPGSRSS [E19P] reads 3.15; that for FPELGYSYGGGSASSQHSNGSRSS [E19N], 2.59. For FPELGYSYGGGSASSQHSFGSRSS [E19F], the protein stability index was 3.64.

Consider FPELGYSYGGGSASSQHSETSRSS [G20T], for which the protein stability index was found to be 3.42. In the case of FPELGYSYGGGSASSQHSENSRSS [G20N], the protein stability index was found to be 3.43. For FPELGYSYGGGSASSQHSEASRSS [G20A], the protein stability index amounted to 2.52. Consider FPELGYSYGGGSASSQHSEVSRSS [G20V], for which the protein stability index is 2.75. Take FPELGYSYGGGSASSQHSEQSRSS [G20Q]: the protein stability index is 3.27. In the case of FPELGYSYGGGSASSQHSELSRSS [G20L] it was 2.5; in that of FPELGYSYGGGSASSQHSEMSRSS [G20M], 2.48. Consider FPELGYSYGGGSASSQHSEFSRSS [G20F], for which the protein stability index was 2.63.

Source of the values: the supplement of paper PMC10567573.
